Laboratory results from publication PMC7878818.

Assays:
[1] = biological target: Spindlin1/C11orf84 complex (human) (UniProt Q9BUA3); experiment: ITC; 25 °C, MicroCal ITC200; 20 mM HEPES pH 7.5, 150 mM NaCl; 0.8 mM H3 peptide injected into 50 μM protein or complex in the sample cell
[2] = biological target: Spindlin1/C11orf84 complex (human) (UniProt Q9Y657); experiment: ITC; 25 °C, MicroCal ITC200; 20 mM HEPES pH 7.5, 150 mM NaCl; 50 μM Spindlin1 or Spindlin1/C11orf84 complex in the cell, 0.8 mM peptide injected
[3] = biological target: Spindlin1 Y98A/C11orf84 complex (human) (UniProt Q9Y657); experiment: as above
Target sequence in this assay (Q9Y657 50-262 Y98A, chain 1 of 2): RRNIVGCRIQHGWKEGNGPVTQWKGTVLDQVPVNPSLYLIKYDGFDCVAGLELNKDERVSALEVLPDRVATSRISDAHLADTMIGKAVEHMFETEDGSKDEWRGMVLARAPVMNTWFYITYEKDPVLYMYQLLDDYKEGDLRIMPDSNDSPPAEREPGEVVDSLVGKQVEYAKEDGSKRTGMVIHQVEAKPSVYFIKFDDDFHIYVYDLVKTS
Target sequence in this assay (Q9BUA3 whole entry, chain 2 of 2, further chain): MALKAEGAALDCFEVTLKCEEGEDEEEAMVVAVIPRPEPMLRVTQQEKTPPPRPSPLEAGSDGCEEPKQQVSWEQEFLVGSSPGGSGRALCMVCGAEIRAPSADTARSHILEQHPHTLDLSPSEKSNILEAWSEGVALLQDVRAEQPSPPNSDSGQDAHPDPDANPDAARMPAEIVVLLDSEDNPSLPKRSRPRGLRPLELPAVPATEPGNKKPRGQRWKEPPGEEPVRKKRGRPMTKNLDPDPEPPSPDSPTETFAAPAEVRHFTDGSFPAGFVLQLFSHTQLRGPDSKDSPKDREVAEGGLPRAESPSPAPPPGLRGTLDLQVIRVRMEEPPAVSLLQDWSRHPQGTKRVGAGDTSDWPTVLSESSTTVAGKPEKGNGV

[4] = biological target: Spindlin1 W62A/W72A/C11orf84 complex (human) (UniProt Q9Y657); experiment: as above
Target sequence in this assay (Q9Y657 50-262 W62A/W72A, chain 1 of 2): as the sequence (Q9Y657 50-262 Y98A, chain 1 of 2) above, with W13A, W23A, A49Y counted along it
Target sequence in this assay (Q9BUA3 whole entry, chain 2 of 2, further chain): as the sequence (Q9BUA3 whole entry, chain 2 of 2, further chain) above

[5] = biological target: Spindlin1 W62A/C11orf84 complex (human) (UniProt Q9Y657); experiment: as above
Target sequence in this assay (Q9Y657 50-262 W62A, chain 1 of 2): as the sequence (Q9Y657 50-262 Y98A, chain 1 of 2) above, with W13A, A49Y counted along it
Target sequence in this assay (Q9BUA3 whole entry, chain 2 of 2, further chain): as the sequence (Q9BUA3 whole entry, chain 2 of 2, further chain) above

[6] = biological target: Spindlin1 W72A/C11orf84 complex (human) (UniProt Q9Y657); experiment: as above
Target sequence in this assay (Q9Y657 50-262 W72A, chain 1 of 2): as the sequence (Q9Y657 50-262 Y98A, chain 1 of 2) above, with W23A, A49Y counted along it
Target sequence in this assay (Q9BUA3 whole entry, chain 2 of 2, further chain): as the sequence (Q9BUA3 whole entry, chain 2 of 2, further chain) above

[7] = biological target: Spindlin1 F141A/C11orf84 complex (human) (UniProt Q9Y657); experiment: as above
Target sequence in this assay (Q9Y657 50-262 F141A, chain 1 of 2): as the sequence (Q9Y657 50-262 Y98A, chain 1 of 2) above, with A49Y, F92A counted along it
Target sequence in this assay (Q9BUA3 whole entry, chain 2 of 2, further chain): as the sequence (Q9BUA3 whole entry, chain 2 of 2, further chain) above

[8] = biological target: Spindlin1 Y91A/C11orf84 complex (human) (UniProt Q9Y657); experiment: as above
Target sequence in this assay (Q9Y657 50-262 Y91A, chain 1 of 2): as the sequence (Q9Y657 50-262 Y98A, chain 1 of 2) above, with Y42A, A49Y counted along it
Target sequence in this assay (Q9BUA3 whole entry, chain 2 of 2, further chain): as the sequence (Q9BUA3 whole entry, chain 2 of 2, further chain) above

[9] = biological target: Spindlin1 (aa: 50–262) (human) (UniProt Q9Y657); experiment: as above
Spindlin1 (aa: 50–262) (human), sequence (Q9Y657 50-262): as the sequence (Q9Y657 50-262 Y98A, chain 1 of 2) above, with A49Y counted along it

[10] = biological target: Spindlin1 Y98A/C11orf84 complex (human) (UniProt Q9Y657); experiment: ITC; 25 °C, MicroCal ITC200; 20 mM HEPES pH 7.5, 150 mM NaCl; 0.8 mM H3 peptide injected into 50 μM protein or complex in the sample cell
[11] = biological target: Spindlin1 D173A/C11orf84 complex (human) (UniProt Q9Y657); experiment: as above
[12] = biological target: Spindlin1 W62A/W72A/C11orf84 complex (human) (UniProt Q9Y657); experiment: as above
[13] = biological target: Spindlin1 W62A/C11orf84 complex (human) (UniProt Q9Y657); experiment: as above
[14] = biological target: Spindlin1 W72A/C11orf84 complex (human) (UniProt Q9Y657); experiment: as above
[15] = biological target: Spindlin1 F141A/C11orf84 complex (human) (UniProt Q9Y657); experiment: as above
[16] = biological target: Spindlin1 Y91A/C11orf84 complex (human) (UniProt Q9Y657); experiment: as above

H3K4me3 peptide, H3 (1-12) showed a Kd [1] of 213 nM and a stoichiometry N [1] of 1.01.

For H3K4me3K9me2 peptide, H3 (1-12), the Kd [1] was 42 nM and the stoichiometry N [1] was 1.01.

Work on H3K4me3K9me3 peptide yielded a Kd [2] of 20 nM, a fold reduction in binding affinity against wild type [3] of 3 fold and a fold reduction in binding affinity against wild type [4] of 10 fold. It also gave a fold reduction in binding affinity against wild type [5] of 3 fold, a fold reduction in binding affinity against wild type [6] of 3 fold and a fold reduction in binding affinity against wild type [7] of 40 fold. The fold reduction in binding affinity against wild type [8] was 3 fold and the Kd [9] was 46 nM.

Work on H3K4me3K9me3 peptide, H3 (1-12) yielded a stoichiometry N [10] of 1.07, a stoichiometry N [11] of 1.04 and a stoichiometry N [12] of 1. For the same substance, the stoichiometry N [13] was 1.06, the stoichiometry N [14] was 1.07 and the stoichiometry N [15] was 1.03. For the same substance, the stoichiometry N [1] was 1.02 and the stoichiometry N [16] was 1.07.

In the case of H3K4me3R8me2a peptide, H3 (1-12), the Kd [1] is reported as 82 nM and the stoichiometry N [1] is reported as 1.04.

In the case of H3K9me3 peptide, H3 (1-12), the Kd [1] is reported as 2880 nM and the stoichiometry N [1] is reported as 1.02.
